According to patent publication US6555105 (GlaxoSmithKline, dated 2003):

Target: T1, recombinant CC-CKR1 receptor (UniProt P32246 1-355, limits assumed)
T1 construct: whole, on cells; The assay used either THP-1 cells or COS cells expressing recombinant CC-CKR1; also called CCKR1 receptors
T1 sequence (looked up): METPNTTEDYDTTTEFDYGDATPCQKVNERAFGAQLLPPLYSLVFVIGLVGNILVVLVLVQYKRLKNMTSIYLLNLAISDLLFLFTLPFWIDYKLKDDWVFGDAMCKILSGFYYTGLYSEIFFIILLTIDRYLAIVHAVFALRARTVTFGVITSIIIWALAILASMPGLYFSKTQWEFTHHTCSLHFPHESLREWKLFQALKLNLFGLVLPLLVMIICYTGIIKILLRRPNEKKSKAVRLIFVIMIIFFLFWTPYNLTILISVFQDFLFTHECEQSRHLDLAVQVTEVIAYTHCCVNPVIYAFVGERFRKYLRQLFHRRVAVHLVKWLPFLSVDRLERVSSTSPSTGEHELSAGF
Experiment: radioligand competition on cells (THP-1 or COS expressing CC-CKR1), [125I]RANTES tracer, competitor Met-RANTES
Method: The competition assay was carried out in 96 well multi-screen filter-phase (Millipore, MADV N6500) which had been pretreated for 2 h with 50 mM HEPES buffer, pH 7.2 containing 1 mM CaCl_2, 5 mM MgCl_2, and 0.5% BSA, (binding buffer). The assay was performed using either THP-1 cells or COS cells expressing the recombinant CC-CKR1 receptor (Neote, K., DiGregorio, Mak, J. Y., Horuk, R., and Schall, T. J., (1993) Molecular cloning, functional expression, and signalling characteristics of a C—C chemokine receptor, *Cell* 72 415–425; Gao, J. L., et al, *J. Exp. Med.* 177 1421–7 (1993)). Each well contained 10^5 cells in a volume of 150 μl of binding buffer containing 0.4 nM [I^125]Mip-1a or 0.4 nM [I^125]RANTES (new England Nuclear, Nex 277) and varying concentrations of competing Met-RANTES. Assays were performed in triplicate. After 90 min incubation at 4° C., the cells were washed 4 times with 200 μl ice cold binding buffer containing 0.5 M NaCl which was removed by aspiration. The filters were dried, 3.5 ml Ultima Gold Scintillation fluid added (Packard) and counted on a Beckman LS5000 counter.

- binding result: binds
B1: methionylated RANTES (ligand)
chain: MSPYSSDTTPCCFAYIARPLPRAHIKEYFYTSGKCSNPAVVFVTRKNRQVCANPEKKWVREYINSLEMS
notes: also called Met-RANTES
